The target of assay [1] is T1, Human ornithine decarboxylase (human, UniProt P11926 2-421).
T1 sequence: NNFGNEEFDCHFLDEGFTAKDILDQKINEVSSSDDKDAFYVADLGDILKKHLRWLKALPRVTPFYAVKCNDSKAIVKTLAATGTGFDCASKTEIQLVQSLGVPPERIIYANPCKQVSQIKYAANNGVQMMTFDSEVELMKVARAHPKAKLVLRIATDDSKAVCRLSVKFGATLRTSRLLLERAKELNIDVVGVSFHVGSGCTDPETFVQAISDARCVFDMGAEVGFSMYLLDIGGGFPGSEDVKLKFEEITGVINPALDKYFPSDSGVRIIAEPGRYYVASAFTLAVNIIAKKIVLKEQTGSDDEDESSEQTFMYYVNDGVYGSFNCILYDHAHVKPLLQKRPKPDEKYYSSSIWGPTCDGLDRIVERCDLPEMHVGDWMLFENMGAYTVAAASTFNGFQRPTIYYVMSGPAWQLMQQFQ
The assay is described as follows: cell-based or functional assay.

Assay [2] concerns the target T1, Human ornithine decarboxylase. Nature of the assay: AUC; sedimentation velocity, 20 °C, 30 mM Tris-HCl pH 7.4, 25 mM NaCl; ODC fixed at 0.3 mg/mL, AZ 0.02-0.19 mg/mL (AZ/ODC molar ratio 0.25 to 3); all data sets fitted to the AB hetero-association model in SEDPHAT. Particulars: both partners purified.
Assay [3] has the same target. Nature of the assay: cell-based or functional assay. The source holds these as a separate data set.
Assay [4] has the same target. Nature of the assay: AUC; sedimentation velocity, 20 °C, 30 mM Tris-HCl pH 7.4, 25 mM NaCl; ODC fixed at 0.3 mg/mL, AZ 0.02-0.19 mg/mL (AZ/ODC molar ratio 0.25 to 3); all data sets fitted to the AB hetero-association model in SEDPHAT. Particulars: both partners purified. This is another data set of the same source.
Assay [5] shares this target. The assay is described as follows: cell-based or functional assay. The source holds these as a separate data set.

Like-named read-outs stand apart in the source and are kept apart here.

B1: AZ_(95–228) (domain or fragment)
chain: not shown
notes: also called C-terminal domain of AZ1
Broadly, the Kd is a measure of binding affinity in units of concentration. In the case of B1, in assay [1], the “IC50 of inhibition of ODC enzyme activity by AZ” value (from here on “IC50 of inhibition … by AZ”) turned out to be 0.16 µM. Also, the Kd in assay [2] is 1150 ± 10 nM.

B2: AZ_(95–228)_E142A/H171A/K178A (domain or fragment)
chain: not shown
notes: also called non-α1 mutant
In the case of B2, the Kd in assay [2] came to 11500 ± 600 nM.

B3: AZ_(95–228)_K153A/E164A/E165A (domain or fragment)
chain: not shown
Regarding B3, the “IC50 of inhibition … by AZ” value in assay [1] is 4.13 µM. Besides, in assay [2], the Kd came to 6580 ± 20 nM.

B4: AZ_(95–228)_E165A (domain or fragment)
chain: not shown
On to B4, for which the “IC50 of inhibition … by AZ” value in assay [1] came out at 0.3 µM. Moreover, in assay [2], the Kd was 1730 ± 20 nM.

B5: AZ_(95–228)_E161A (domain or fragment)
chain: not shown
For the molecule B5, in assay [1], the “IC50 of inhibition … by AZ” value stood at 0.25 µM. Besides, the Kd in assay [2] turned out to be 1110 ± 10 nM.

B6: AZ_(95–228)_E142A/K153A/D154A/E161A/E164A/E165A/H171A/K178A (domain or fragment)
chain: not shown
notes: also called hybrid octuple mutant
As for B6, the Kd in assay [2] came out at 12400 ± 700 nM.

B7: AZ_(95–228)_K178A (domain or fragment)
chain: not shown
For B7, the “IC50 of inhibition … by AZ” value in assay [1] is 0.31 µM. In addition, the Kd in assay [2] is 3030 ± 20 nM.

B8: AZ_(95–228)_H171A (domain or fragment)
chain: not shown
In the case of B8, in assay [1], the “IC50 of inhibition … by AZ” value was 0.27 µM. In assay [2], the Kd was 2030 ± 20 nM.

B9: AZ_(95–228)_D154A (domain or fragment)
chain: not shown
As to B9, the “IC50 of inhibition … by AZ” value in assay [1] is 0.27 µM. Besides, in assay [2], the Kd came out at 1700 ± 20 nM.

B10: AZ_(95–228)_K153A/D154A/E161A/E164A/E165A (domain or fragment)
chain: not shown
As for B10, in assay [2], the Kd turned out to be 6810 ± 60 nM.

B11: AZ_(95–228)_K153A (domain or fragment)
chain: not shown
With B11, the “IC50 of inhibition … by AZ” value in assay [1] was 0.4 µM. In assay [2], the Kd turned out to be 1210 ± 10 nM.

B12: AZ_(95–228)_E164A (domain or fragment)
chain: not shown
As to B12, the “IC50 of inhibition … by AZ” value in assay [1] was determined as 0.3 µM. In addition, the Kd in assay [2] came out at 1680 ± 10 nM.

B13: AZ_(95–228)_E142A (domain or fragment)
chain: not shown
Turning to B13, in assay [1], the “IC50 of inhibition … by AZ” value turned out to be 0.31 µM. The Kd in assay [2] was 2200 ± 20 nM.

B14: AZ3_WT (natural protein, human, UniProt Q9UMX2 1-235, looked up)
chain: MPCKRCRPSVYSLSYIKRGKTRNYLYPIWSPYAYYLYCYKYRITLREKMLPRCYKSITYKEEEDLTLQPRSCLQCSESLVGLQEGKSTEQGNHDQLKELYSAGNLTVLATDPLLHQDPVQLDFHFRLTSQTSAHWHGLLCDRRLFLDIPYQALDQGNRESLTATLEYVEEKTNVDSVFVNFQNDRNDRGALLRAFSYMGFEVVRPDHPALPPLDNVIFMVYPLERDVGHLPSEPP
notes: antizyme 3 (AZ3), human; also called antizyme 3
B14: the “IC50 of inhibition … by AZ” value in assay [3] was found to be 0.61 µM. Besides, the Kd in assay [4] turned out to be 1520 ± 10 nM.

B15: AZ1_D124S/E150Q/Q166K/N179D (natural protein)
chain: not shown
notes: antizyme 1 (AZ1), human; also called AZ1_4M
Turning to B15, the “IC50 of inhibition … by AZ” value in assay [5] was 0.55 µM. Also, the Kd in assay [4] was 950 ± 30 nM.

B16: AZ1_WT (natural protein)
chain: not shown
notes: antizyme 1 (AZ1), human; also called antizyme 1
In the case of B16, in assay [5], the “IC50 of inhibition … by AZ” value is 0.23 µM. Also, the Kd in assay [4] is 220 ± 10 nM.

B17: AZ1_D124S/E150Q/Q166K/H171S/N179D (natural protein)
chain: not shown
notes: antizyme 1 (AZ1), human; also called AZ1_5M; AZ1_D124S/E150Q/Q166K/N179D/H171S
As for B17, the “IC50 of inhibition … by AZ” value in assay [5] came to 0.49 µM. For the same molecule, in assay [4], the Kd turned out to be 1780 ± 20 nM.

The values are drawn from PMC6995573, “Critical Factors in Human Antizymes that Determine the Differential Binding, Inhibition, and Degradation of Human Ornithine Decarboxylase” (Biomolecules, 2019).
